# Reference: IntAct's records for PubMed 16938849
# B1: Mitogen-activated protein kinase kinase kinase kinase 4 (Mus musculus), P97820 (parent)
# chain: MANDSPAKSLVDIDLSSLRDPAGIFELVEVVGNGTYGQVYKGRHVKTVTAAIKVMDVTEDEEEEITLEINMLKKYSHHRNIATYYGAFIKKSPPGHDDQLWLVMEFCGAGSITDLVKNTKGNTLKEDWIAYISREILRGLAHLHIHHVIHRDIKGQNVLLTENAEVKLVDFGVSAQLDRTVGRRNTFIGTPYWMAPEVIACDENPDATYDYRSDLWSCGITAIEMAEGGPPLCDMHPMRALFLIPRNPPPRLKSKKWSKKFFSFIEGCLVKNYMQRPSTEQLLKHPFIRDQPNERQVRIQLKDHIDRTRKKRGEKDETEYEYSGSEEEEEEVPEQEGEPSSIVNVPGESTLRRDFLRLQQENKERSEALRRQQLLQEQQLREQEEYKRQLLAERQKRIEQQKEQRRRLEEQQRREREARRQQEREQRRREQEEKRRLEELERRRKEEEERRRAEEEKRRVEREQEYIRRQLEEEQRHLEILQQQLLQEQAMLLHDHRRPHAQQQPPPPQQQDRSKPSFHAPEPKPHYDPADRAREVQWSHLASLKNNVSPVSRSHSFSDPSPKFAHHHLRSQDPCPPSRSEGLSQSSDSKSEVPEPTQKAWSRSDSDEVPPRVPVRTTSRSPVLSRRDSPLQGGGQQNSQAGQRNSTSSIEPRLLWERVEKLVPRPGSGSSSGSSNSGSQPGSHPGSQSGSGERFRVRSSSKSEGSPSPRQESAAKKPDDKKEVFRSLKPAGEVDLTALAKELRAVEDVRPPHKVTDYSSSSEESGTTDEEEEDVEQEGADDSTSGPEDTRAASSPNLSNGETESVKTMIVHDDVESEPAMTPSKEGTLIVRQTQSASSTLQKHKSSSSFTPFIDPRLLQISPSSGTTVTSVVGFSCDGLRPEAIRQDPTRKGSVVNVNPTNTRPQSDTPEIRKYKKRFNSEILCAALWGVNLLVGTESGLMLLDRSGQGKVYPLISRRRFQQMDVLEGLNVLVTISGKKDKLRVYYLSWLRNKILHNDPEVEKKQGWTTVGDLEGCVHYKVVKYERIKFLVIALKSSVEVYAWAPKPYHKFMAFKSFGELLHKPLLVDLTVEEGQRLKVIYGSCAGFHAVDVDSGSVYDIYLPTHIQCSIKPHAIIILPNTDGMELLVCYEDEGVYVNTYGRITKDVVLQWGEMPTSVAYIRSNQTMGWGEKAIEIRSVETGHLDGVFMHKRAQRLKFLCGRNDKVFFSSVRSGGSSQVYFMTLGRTSLLSW
# Variants of: B1
# Settings: with Ezr
row,effect of a mutation on the interaction,Variant
1,increasing interaction strength,D152N
